Assay [1] addresses purified preparation of the V3 loop-BPs (P95/nucleolin, P40/PHAP II, P30/PHAP I) (human) (UniProt P19338). Description: BIAcore, V3 loop-BPs immobilized on CM5. In general terms: SPR reads the build-up and loss of mass on a sensor chip optically.
The target of assay [2] is P95/nucleolin (human) (UniProt P19338). Description: FACS on CEM cells with biotin-labeled construct; target printed as TASP-ligand.
Assay [3] shares this target. In words: competition: 50 µM unlabeled 5[KPR]-TASP against 5 µM biotin-labeled 5[Kψ(CH2N)PR]-TASP on CEM cells.
For assay [4], the target named is purified preparation of the V3 loop-BPs (P95/nucleolin, P40/PHAP II, P30/PHAP I) (human) (UniProt P19338). In words: BIAcore, V3-BPs; row shifted one column to the left.
Assay [5] shares this target. In words: inhibition of gp120 binding to the V3 loop-BPs; competitor gp120.
Assay [6] has as its target P95/nucleolin (human) (UniProt P19338). In words: cell-based or functional assay.
The target is the same in assay [7]. Description: FACS on MOLT4 cells after pronase E; target TASP-Ligand [sic].
Assay [8] shares this target. Description: FACS on MOLT4 cells, no protease; target TASP-Ligand [sic].
The next assay deals with P40/PHAP II (human) (UniProt Q01105). Description: saturation of the binding sites, method not stated.
P40/PHAP II (human), sequence (Q01105 other isoform, or with tags, fused parts or gaps limits assumed): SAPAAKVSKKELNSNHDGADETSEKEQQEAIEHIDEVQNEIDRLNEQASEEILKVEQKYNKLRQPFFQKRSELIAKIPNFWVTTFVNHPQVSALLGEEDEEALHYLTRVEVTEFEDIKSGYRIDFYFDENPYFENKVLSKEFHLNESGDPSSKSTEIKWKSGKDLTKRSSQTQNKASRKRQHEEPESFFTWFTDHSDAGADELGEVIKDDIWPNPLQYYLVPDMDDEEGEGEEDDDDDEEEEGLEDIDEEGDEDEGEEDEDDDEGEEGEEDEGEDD
Another assay deals with P30/PHAP I (human) (UniProt P39687). In words: saturation of the binding sites, method not stated.
Assay [9] has as its target P95/nucleolin (human) (UniProt P19338). Description: saturation of the binding sites, method not stated.
For assay [10], the target named is purified preparation of the V3 loop-BPs (P95/nucleolin, P40/PHAP II, P30/PHAP I) (human) (UniProt P19338). Description: BIAcore, V3-BPs.
The target in assay [11] is P95/nucleolin (human) (UniProt P19338). Description: FACS on MOLT4 cells after proteinase K; target TASP-Ligand [sic].
For assay [12] the target is unchanged. Description: FACS on MOLT4 cells after trypsin; target TASP-Ligand [sic].
For assay [13], the target named is purified preparation of the V3 loop-BPs (P95/nucleolin, P40/PHAP II, P30/PHAP I) (human) (UniProt P19338).
The target in assay [14] is CD4 (cellular, CEM and MOLT4 cells) (human) (UniProt P01730). In words: FACS on MOLT4 cells after pronase E.
For assay [15] the target is unchanged. Description: FACS on MOLT4 cells after proteinase K.
Assay [16] has the same target. In words: FACS on MOLT4 cells, no protease.
The target is the same in assay [17]. In words: FACS on MOLT4 cells after trypsin.
Assay [18] has the same target. Description: cell-based or functional assay.
For assay [19], the target named is CD26 (on MOLT4 cells) (human) (UniProt P27487). In words: FACS on MOLT4 cells after pronase E.
Assay [20] has the same target. In words: FACS on MOLT4 cells after proteinase K.
For assay [21] the target is unchanged. Description: FACS on MOLT4 cells, no protease.
For assay [22] the target is unchanged. In words: FACS on MOLT4 cells after trypsin.
Assay [23] has as its target purified preparation of the V3 loop-BPs (P95/nucleolin, P40/PHAP II, P30/PHAP I) (human) (UniProt P19338). In words: BIAcore, V3 loop-BPs.
Assay [24] addresses recombinant gp120 of HIV-1 Lai (IIIB) (HIV-1 Lai (IIIB)) (UniProt P03377). Description: cell-based or functional assay.
For assay [25], the target named is purified preparation of the V3 loop-BPs (P95/nucleolin, P40/PHAP II, P30/PHAP I) (human) (UniProt P19338). The source holds these as a separate data set.
A further assay deals with recombinant soluble CD4 (UniProt P01730). Description: BIAcore, soluble CD4; row shifted one column to the left.
Assay [26] concerns the target purified preparation of the V3 loop-BPs (P95/nucleolin, P40/PHAP II, P30/PHAP I) (human) (UniProt P19338). Description: BIAcore, purified V3-BPs.

Where two headings read alike, the source gives them in different places. Bounds are passed on as bounds.

P95/nucleolin (human), sequence (P19338 2-710 limits assumed): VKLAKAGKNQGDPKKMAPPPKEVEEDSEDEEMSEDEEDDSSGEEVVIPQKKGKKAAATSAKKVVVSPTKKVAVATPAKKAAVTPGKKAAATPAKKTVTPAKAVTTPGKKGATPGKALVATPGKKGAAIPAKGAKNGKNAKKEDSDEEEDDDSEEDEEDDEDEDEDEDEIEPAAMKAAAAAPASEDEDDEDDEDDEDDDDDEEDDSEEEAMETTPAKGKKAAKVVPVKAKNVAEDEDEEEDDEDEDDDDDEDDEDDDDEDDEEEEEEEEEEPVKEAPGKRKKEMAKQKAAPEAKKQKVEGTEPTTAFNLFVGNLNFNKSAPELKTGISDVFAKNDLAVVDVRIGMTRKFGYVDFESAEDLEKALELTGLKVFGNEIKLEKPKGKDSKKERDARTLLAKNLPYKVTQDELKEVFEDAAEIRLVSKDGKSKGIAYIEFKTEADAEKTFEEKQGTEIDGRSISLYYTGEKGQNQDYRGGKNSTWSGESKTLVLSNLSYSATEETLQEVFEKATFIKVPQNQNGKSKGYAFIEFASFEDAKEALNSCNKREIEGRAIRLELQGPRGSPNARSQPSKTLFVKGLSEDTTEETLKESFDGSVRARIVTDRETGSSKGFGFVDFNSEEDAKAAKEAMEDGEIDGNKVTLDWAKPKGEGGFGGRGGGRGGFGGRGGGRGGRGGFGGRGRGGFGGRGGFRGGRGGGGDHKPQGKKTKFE

As for 5[KPR]-TASP (peptide), in [1], the Ka was determined as 1.5e+08 M⁻¹, the koff is 0.0024 s⁻¹ and the kon was determined as 350000 M⁻¹ s⁻¹. The EC50 in the assay with P95/nucleolin (human) [2] stood at 3500 nM. Further, the % of P95 recovery abolished in the assay with P95/nucleolin (human) [3] lay within 40 to 50%. In [4], the Ka worked out at 1.5e+08 M⁻¹, the koff was 0.0024 s⁻¹ and the kon worked out at 350000 M⁻¹ s⁻¹. In addition, the IC50 in [5] is 300 nM. The Inhibition of HIV infection (IC50), HIV-1 in CEM cells, p24 at 4 days with P95/nucleolin (human) [6] stood at 5 µM.

In the case of 5[Kψ(CH2N)PR]-TASP (peptide), the % positive cells came to 8% with P95/nucleolin (human) [7], 100% with P95/nucleolin (human) [8], 15% with P95/nucleolin (human) [11] and 92% in the assay with P95/nucleolin (human) [12]. Moreover, the Ka in [1] and in assay [10] was 9.61e+09 M⁻¹ in each case. The substance further showed an EC50 in the assay with P95/nucleolin (human) [2] of 150 nM. Further, the concentration giving 100% saturation of the binding sites with P40/PHAP II (human) was determined as 4 µM; in the assay with P30/PHAP I (human), 8 µM; with P95/nucleolin (human) [9], 2 µM. The substance also had an IC50 of HIV entry (β-galactosidase), HeLa P4, HIV-1 Lai with P95/nucleolin (human) [6] of 0.5 µM. The same substance returned an IC50 of HIV entry (β-galactosidase), HeLa P4-C5, HIV-1 Bal with P95/nucleolin (human) [6] of 0.8 µM. The same substance came in with an IC50 of HIV entry (β-galactosidase), HeLa P4-C5, HIV-1 UGO29A in the assay with P95/nucleolin (human) [6] of 0.3 µM. Besides, the IC50 of HIV entry (β-galactosidase), HeLa P4-C5, HIV-2 ROD with P95/nucleolin (human) [6] was 0.4 µM. The Inhibition of HIV infection (IC50), HIV-1 in CEM cells, p24 at 4 days with P95/nucleolin (human) [6] was 0.5 µM.

In the case of “5[Kψ(CH2N)PR]-TASP with dehydroxyproline in place of proline (peptide)”, in the assay with P95/nucleolin (human) [6], the IC50 of HIV entry (β-galactosidase), HeLa P4, HIV-1 Lai amounted to 0.1 µM; the IC50 of HIV entry (β-galactosidase), HeLa P4-C5, HIV-1 89.6 was determined as 0.3 µM; the IC50 of HIV entry (β-galactosidase), HeLa P4-C5, HIV-1 Bal came to 0.3 µM; the IC50 of HIV entry (β-galactosidase), HeLa P4-C5, HIV-1 JRCSF was 0.3 µM. In the assay with P95/nucleolin (human) [6], this substance yielded an IC50 of HIV entry (β-galactosidase), HeLa P4-C5, HIV-1 Lai of 0.1 µM; an IC50 of HIV entry (β-galactosidase), HeLa P4-C5, HIV-2 CBL of 2 µM; an IC50 of HIV entry (β-galactosidase), HeLa P4-C5, HIV-2 ROD of 0.2 µM.

mAb OKT4A (antibody) gave an ELISA OD 450 nm in [13] of 0.2 OD 450 nm. In addition, the % positive cells was determined as 9% in assay [14], 6% in assay [15], 100% in assay [16] and 24% in assay [17]. The substance also came in with an inhibition of binding of HIV-1 particles to CEM cells (p24 in cell lysates) in assay [18] of 75%.

Turning to mAb Ta1 (antibody), the % positive cells is 97% in [19], 98% in assay [20], 100% in assay [21] and 100% in assay [22].

In assay [1], “nonglycosylated gp120 of HIV-1 SF2 (Env 2-3) (from UniProt P03378 32-509) (ligand)” gave a Ka of 1.6e+08 M⁻¹, a koff of 0.0024 s⁻¹ and a kon of 380000 M⁻¹ s⁻¹. Also, the fold reduction of affinity against glycosylated gp120 SF2 in assay [23] is 10 fold. Besides, in assay [4], the Ka came to 1.6e+08 M⁻¹, the off-rate (koff) was 0.0024 s⁻¹ and the association rate constant (kon) is 380000 M⁻¹ s⁻¹.

As for “purified preparation of the V3 loop-BPs (P95/nucleolin, P40/PHAP II, P30/PHAP I) (from UniProt P19338 2-710; Q01105 2-277; P39687 1-249)”, in assay [24], the inhibition of HIV-1 Lai infection of CEM cells, multiple cycles, p24 at 5 days, 10 µg/ml came out at 91% and the inhibition of single cycle HIV-1 infection of CEM cells was above 80%.

In [1], “recombinant gp120 of HIV-1 Lai (IIIB) (from UniProt P03377 33-516) (ligand)” had a Ka of 2.1e+08 M⁻¹, an off-rate constant (koff) of 0.0021 s⁻¹ and an association rate constant (kon) of 440000 M⁻¹ s⁻¹. The substance also showed an IC50 in [25] of 3 nM. Besides, in assay [4], the Ka was 2.1e+08 M⁻¹, the off-rate (koff) turned out to be 0.0021 s⁻¹ and the association rate constant (kon) stood at 440000 M⁻¹ s⁻¹.

On to “recombinant gp120 of HIV-1 Lai (IIIB) (from UniProt P03377 33-516) (ligand; other documents disagree on this pair)”, for which, in the assay with recombinant soluble CD4, the Ka worked out at 1.08e+09 M⁻¹, the koff is 0.0545 s⁻¹ and the kon was 588000 M⁻¹ s⁻¹.

In [1], “recombinant gp120 of HIV-1 MN (from UniProt P05877 32-513) (ligand)” registered a Ka of 4.3e+08 M⁻¹, an off-rate (koff) of 0.00044 s⁻¹ and an on-rate constant (kon) of 190000 M⁻¹ s⁻¹. In addition, in assay [4], the Ka came to 4.3e+08 M⁻¹, the dissociation rate constant (koff) came out at 0.00044 s⁻¹ and the kon is 190000 M⁻¹ s⁻¹.

With “recombinant gp120 of HIV-1 SF2 (from UniProt P03378 32-509) (ligand)”, in assay [1], the Ka came out at 2.32e+09 M⁻¹, the koff was 2.8e-05 s⁻¹ and the kon came out at 65000 M⁻¹ s⁻¹. In addition, in assay [4], the Ka was determined as 2.32e+09 M⁻¹, the koff is 3e-05 s⁻¹ and the association rate constant (kon) is 65000 M⁻¹ s⁻¹.

synthetic V3 loop peptide of HIV-1 Ba-L: in assay [26], the Ka amounted to 1.5e+06 M⁻¹.

In assay [26], synthetic V3 loop peptide of HIV-1 Lai displayed a Ka of 5.1e+06 M⁻¹ and a fold affinity against the V3 loop of the macrophage-tropic isolate above 3 fold.

One may read the koff as the first-order rate constant of dissociation. As usually defined, the kon is the second-order rate constant of association. The term EC50 denotes the concentration needed to bring the measured effect to its halfway point. Read a high EC50 as a less potent agent. What is called IC50 is the concentration at which inhibition is half-maximal. A low value points to greater potency in that assay.

Values taken from patent US20020076693A1, “Novel cell surface receptor for HIV retroviruses, therapeutic and diagnostic uses” (priority 1997, published 2002).
